From patent publication US20230064703A1
Each block holds one binder with its values, some of them ahead of it.

Assays:
[1] = target: human GITR expressed on Cho-K1 cells (human) (UniProt Q9Y5U5); test: FACS binding assay with GITR/Cho-K1, chimeric antibody
[2] = target: human GITR expressed on Cho-K1 cells (human) (UniProt Q9Y5U5); test: FACS, chimeric antibody on GITR/Cho-K1 cells, geometric mean, 4-parameter fit

human GITR expressed on Cho-K1 cells (human), sequence (Q9Y5U5 26-241): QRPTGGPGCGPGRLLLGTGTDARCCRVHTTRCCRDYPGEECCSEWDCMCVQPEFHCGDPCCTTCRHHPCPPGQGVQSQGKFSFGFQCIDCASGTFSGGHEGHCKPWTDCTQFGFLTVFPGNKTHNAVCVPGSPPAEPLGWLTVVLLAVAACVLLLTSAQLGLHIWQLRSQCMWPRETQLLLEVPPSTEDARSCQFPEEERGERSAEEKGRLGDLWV

EC50 [1]: 0.112 µg/mL
EC50 [2]: 0.0566 µg/mL
B1: chimeric antibody 225H7D12 (human IgG1) (antibody, V domains shown)
VH: QVQLQQSGAEVMKPGASVKLSCKTTGYRFTGYWIEWVKQRPGHGLEWIGEILPGSGVSNNNEKFRDKATFTADTSSNTAYIQLSSLTTDDSAIYYCARKASYYTMDYWGQGTSVTVSS
VL: QIVLTQSPAIMSASLGERVTMTCTASSSVSSFYFHWYQQKPGSSPKLWIYSISNLASGVPTRFSGSGSGTSYSLTISSMEAEDAATYYCHQYHRSPRTFGGGTKLEIKR

EC50 [1]: 0.111 µg/mL
EC50 [2]: 0.0443 µg/mL
B2: chimeric antibody 45F1F3 (human IgG1) (antibody, V domains shown)
VH: DVQLQESGPGLVKPSQSLSLTCTVTGYSITIDYAWNWIRQFPGNKLEWMGYISNSGYTSYNPSLKSRISFTRDTSKNQFFLQLNSVTPEDSATYYCTRSGHYDLFDYWGQGTTLTVSS
VL: DVVMTQAPLTLSVTIGQPASISCKSSQSLFDRDGKTYLSWLLERPGQSPKRLIYLVSNLDSGVPDRFTGSGSGTDFTLKISRVEAEDLGVYYCWQGTHFPYTFGGGTKVEMKR
